Where no end group is shown, it is not given here.
Experiments:
[1] = assay type: physicochemical; settings: pH 7.5
Erh1 E85A = biological target: T1, Erh1 E85A (Schizosaccharomyces pombe, UniProt G2TRN4, E85A); assay: ITC, Mmi1 peptide titrated into Erh1 E85A; assay type: binding, S. pombe; settings: 293 K, pH 7.5
T1 construct: A region of Erh1 (residues 1–104) was amplified by PCR; made in house; host or cells: Escherichia coli BL21 (Gold)
Description: (§1) The titration protocol consisted of a single initial injection of 1 µl, followed by 19 injections of 2 µl SUMO-tagged Mmi1 peptides into the sample cell containing Erh1 protein. Thermodynamic data were analyzed with a single-site binding model using MicroCal PEAQ-ITC Analysis Software provided by the manufacturer.

Erh1 (Erh1wt) = biological target: T2, Erh1 (Erh1wt) (Schizosaccharomyces pombe, UniProt G2TRN4); assay: Isothermal titration calorimetry (ITC), SUMO-tagged Mmi1 peptides titrated into wild-type Erh1; assay type: binding, S. pombe; settings: Erh1wt, ITC, 293 K, 20 mM Tris-HCl pH 7.5, 150 mM NaCl, SUMO-tagged Mmi1 peptide, single-site model
T2 construct: A region of Erh1 (residues 1–104) was amplified by PCR; made in house; host or cells: Escherichia coli BL21 (Gold)
T2 sequence (G2TRN4 1-104): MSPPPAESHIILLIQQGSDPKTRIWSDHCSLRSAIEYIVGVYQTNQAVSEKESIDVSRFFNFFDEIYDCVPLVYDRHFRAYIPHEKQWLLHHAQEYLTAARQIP
Description: as §1

Erh1 = assay: GST pull-down of Erh1 with GST-tagged Mmi1 fragments, Coomassie; assay type: binding, S. pombe; settings: GST-Mmi1 fusion incubated with Erh1, glutathione-agarose, SDS-PAGE
Text: Fig. 1 Mmi1 interacts with Erh1 in a 2:2 stoichiometry. a Shown is a schematic representation of the domain architecture of Mmi1. The disorder score from DISOPRED3 Server[62] and the conservation score are shown below. The conservation score is generated by a Protein Residue Conservation Prediction Server[63] from the sequence alignment of Mmi1 orthologues from S. pombe, S. cryophilus, S. octosporus, and S. japonicus. b–d Interactions of GST tagged Mmi1 peptides (GST-Mmi1) with Erh1 visualized by Coomassie blue staining. The indicated GST-Mmi1 fusion proteins or GST alone were incubated with Erh1. The complexes were collected with glutathione-agarose resin and bound proteins were eluted and then subjected to SDS-PAGE. GST or GST-Mmi1 fusion proteins without Erh1 are shown as a negative control. Source data are provided as a Source Data file. e The raw ITC titration data of Erh1 with SUMO tagged Mmi1^95–122 and its fitting curve are shown. KD dissociation constant, DP differential power, N binding stoichiometry, ΔH binding enthalpy. f ITC fitting curves of Erh1 using SUMO tagged Mmi1^95–122 (magenta), Mmi1^106–122 (blue) and Mmi1^95–111 (green) are shown. g Size-exclusion analysis of Erh1 (magenta) and Erh1-Mmi1^95–122 (blue). Marker sizes are 62.9 KDa (Albumin), 46.7 KDa (Ovalbumin), 20.3 KDa (Chymotrypsinogen), 14.6 KDa (Ribonuclease A). Also shown are theoretical monomer sizes (kDa) of Erh1 protein and Mmi1^95–122 peptide TEXT PRINTED IN THE PICTURE: (e) Mmi1^95–122 - Erh1: KD (μM) 0.83±0.19; N (sites) 0.90±0.01; ΔH (kJ per mol) −106±3.02 | (f) Mmi1^95–122: Erh1 KD (μM): 0.83±0.19 | (f) Mmi1^106–122: Erh1 KD (μM): 9.94±1.19 | (f) Mmi1^95–111: Erh1 KD (μM): no binding | (g) Erh1: 13.2 kDa | (g) Mmi1^95–122: 3.5 kDa
A region of Erh1 (residues 1–104) was amplified by PCR from the S. pombe genome and cloned into a modified pET28a (Novagen) vector without a thrombin protease cleavage site (p28a). GST-Mmi1^YTH was sub-cloned from a Mmi1^YTH-p28a construct to a modified PGex-4T1 vector with a TEV protease cleavage site (Tev4T1). […]

Erh1 D27A = biological target: T3, Erh1 D27A (Schizosaccharomyces pombe, UniProt G2TRN4, D27A); assay: ITC, Mmi1 peptide titrated into Erh1 D27A; assay type: binding, S. pombe
T3 construct: A region of Erh1 (residues 1–104) was amplified by PCR; made in house; host or cells: Escherichia coli BL21 (Gold)
T3 sequence (G2TRN4 whole entry D27A, the tested form may be a part): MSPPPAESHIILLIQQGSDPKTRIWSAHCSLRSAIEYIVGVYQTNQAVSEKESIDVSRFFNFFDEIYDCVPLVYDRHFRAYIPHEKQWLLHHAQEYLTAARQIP
Description: as §1

Erh1 D68A = biological target: T4, Erh1 D68A (Schizosaccharomyces pombe, UniProt G2TRN4, D68A); assay: ITC, Mmi1 peptide titrated into Erh1 D68A; assay type: binding, S. pombe
T4 construct: A region of Erh1 (residues 1–104) was amplified by PCR; made in house; host or cells: Escherichia coli BL21 (Gold)
T4 sequence (G2TRN4 whole entry D68A, the tested form may be a part): as the sequence (G2TRN4 whole entry D27A, the tested form may be a part) above, with A27D, D68A counted along it
Description: as §1

Erh1 R23A = biological target: T5, Erh1 R23A (Schizosaccharomyces pombe, UniProt G2TRN4, R23A); assay: ITC, Mmi1 peptide titrated into Erh1 R23A; assay type: binding, S. pombe
T5 construct: A region of Erh1 (residues 1–104) was amplified by PCR; made in house; host or cells: Escherichia coli BL21 (Gold)
T5 sequence (G2TRN4 whole entry R23A, the tested form may be a part): as the sequence (G2TRN4 whole entry D27A, the tested form may be a part) above, with R23A, A27D counted along it
Description: as §1

Erh1-Mmi1 interaction = assay: Co-immunoprecipitation of Erh1-GFP and FLAG-Mmi1 from yeast cells; assay type: cell-based, S. pombe; settings: FLAG-Mmi1 WT replaced with mutant; Erh1-GFP; YEA medium, 32 °C
Description: Cells were grown to mid-log phase in rich YEA medium at 32 °C, harvested, and flash-frozen in liquid nitrogen prior to extract preparations. Extracts prepared from yeast cells expressing epitope tagged proteins under the control of native gene promoters were used for immunoprecipitations and Western blot analyses as described. Total protein extracts for western blotting analyses were prepared by trichloroacetic acid (TCA) precipitation. Briefly, cells were lysed using glass beads in 20% TCA buffer. Next, lysates were diluted using 5% TCA buffer and total protein pellets were concentrated by centrifugation at 21,000×g for 5 min. Precipitated protein was dissolved in sodium dodecyl sulfate (SDS) sample buffer prior to resolution in a polyacrylamide gel. For immunoprecipitation experiments, cells were lysed using glass beads in 2X HC lysis buffer (300 mM HEPES buffer pH 7.6, 100 mM KCl, 2 mM EDTA, 0.2% NP-40, and 0.2 mM DTT) containing protease inhibitor cocktail (11697498001, Roche) and 2 mM PMSF. Lysate cleared of cellular debris was incubated with antibody-conjugated beads for immunoprecipitation. […]

T1 sequence (G2TRN4 whole entry E85A, the tested form may be a part): as the sequence (G2TRN4 whole entry D27A, the tested form may be a part) above, with A27D, E85A counted along it

## Mmi1^95–122: Mmi1 fragment, residues 95–122, Erh1-interacting domain (EID) ({SUMO}-GKYDFSRHCTDYGHSYEWPYFRSLRRES; not fully specified)
[1]
  solubility of synthesized peptide: could not be dissolved in the interaction buffer
Erh1 E85A
  ΔH (binding enthalpy): -81.9±1.70 kJ per mol
Erh1 (Erh1wt)
  ΔH (binding enthalpy): −106±3.02 kJ per mol
Erh1 (Erh1wt); listed as Mmi195-11 2
  ΔH (binding enthalpy): -106±3.02 kJ per mol
Erh1
  interaction with Erh1 (GST pull-down): sufficient for interaction
Erh1 D27A; Erh1 Asp27 substituted with alanine
  binding affinity (in words): significantly reduced the binding affinity
Erh1 D27A; Erh1 D27A, 293 K, pH 7.5
  ΔH (binding enthalpy): -58.8±1.58 kJ per mol
Erh1 D68A; Erh1 D68A, 293 K, pH 7.5
  ΔH (binding enthalpy): -47.6±1.30 kJ per mol
Erh1 D68A; Erh1^D68A mutant
  affinity (in words): reduced
Erh1 R23A; Erh1 Arg23 substituted with alanine
  binding affinity (in words): significantly reduced the binding affinity
Erh1 R23A; Erh1 R23A, 293 K, pH 7.5
  ΔH (binding enthalpy): -24.2±4.87 kJ per mol

B1: mutant Mmi^W112A protein: full-length Mmi1 carrying W112A, expressed in S. pombe (protein)
chain: MSNTNFSTSRSSKSIPELPNLEALRSLWPPPSLNESGDTRSVWTTHTGEPVASSVLSTSGSNNFSSPLKRPAPESHDAPIGRRLMVDDPRLIKHGKYDFSRHCTDYGHSYEAPYFRSLRRESMLYHTSGSYPESQPPYSSYSTDAPHYYHAGSESSAYYDSRSRLHGIQPPPKRRTLSPPPRRLADPVVVGSSRYVEEEVYRRPPYTLASEVPSSASAYQAGYSSYPVRSSPQLSHEDTRHGIASSGSTRYPFVPANTRASHSPSLLEPYAHSLPSSVAPVGAYPEKSSYLLSNSSNDSASRKEKPKARASTPPPLNFSRASEHRNEKGERISMINPRVVLDENGISHRSRYFIMLCDNETAIAHAKKTSIWAVKKDSSKRISDAYKKASVYFIFVAQQTYNALGYAQVVSDLNSTELPFWSDSSHAGGVRIKWIKTCNLFSAEISEIVSHMDHGSEARDGMEMMYDEGSRLCTLINYAIMKRIGRDR
modifications: left off: FLAG, end not stated, kept
notes: full-length Mmi1 carrying W112A, expressed in S. pombe
Erh1-Mmi1 interaction
  Erh1-Mmi1 interaction (co-immunoprecipitation): drastically diminished the Erh1-Mmi1 interaction
